Experimental data reported in patent US20140302517A1 (SAMSUNG ELECTRONICS, published 2014).

B1: EW02 (antibody, human IgG1, lambda, V domains shown)
VH: EVQLLESGGGLVQPGGSLRLSCAASGFTFSNYAMSWVRQAPGKGLEWVSSISSSGGNTYYADSVKGRFTISRDNSKNTLYLQMNSLGAEDTAVYYCAKYHSVFDYWGQGTLVTVSS
VL: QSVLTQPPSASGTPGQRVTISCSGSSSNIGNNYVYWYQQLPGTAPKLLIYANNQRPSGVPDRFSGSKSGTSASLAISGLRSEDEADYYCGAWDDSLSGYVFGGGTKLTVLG
notes: also called EW02 antibody
B2: huAbF46-H4-A1 (IgG2 Fc) (antibody, V domains shown)
VH: EVQLVESGGGLVQPGGSLRLSCAASGFTFTDYYMSWVRQAPGKGLEWLGFIRNKANGYTTEYSASVKGRFTISRDNSKNTLYLQMNSLRAEDTAVYYCARDNWFAYWGQGTLVTVSS
VL: DIQMTQSPSSLSASVGDRVTITCKSSQSLLASGNQNNYLAWYQQKPGKAPKMLIIWASTRVSGVPSRFSGSGSGTDFTLTISSLQPEDFATYYCQQSYSRPYTFGQGTKVEIKR
notes: It was biotinylated in some assays; also called anti-c-Met antibody; biotinylated anti-c-Met antibody
B3: EW01 (antibody, human IgG1, lambda, V domains shown)
VH: EVQLLESGGGLVQPGGSLRLSCAVSGFTFSDYYMSWVRQAPGKGLEWVSGIYSSSSNIYYADSVKGRFTISRDNSENTLYLQMNSLRAEDTAVYYCAKALGNQENEPTSYSNGMDVWGQGTLVTVSS
VL: QSVLTQPPSASGTPGQRVTISCSGSSSNIGNNSVYWYQQLPGTAPKLLIYSDSQRPSGVPDRFSGSKSGTSASLAISGLRSEDEADYYCGTWDYSLNGYVFGGGTKLTVLG
notes: also called anti-idiotype antibody EW01; EW01 antibody

Columns and labels:
huAbF46-H4-A1 (IgG2 Fc) [1] = biological target: B2; assay: bridging ELISA: plate coated with anti-c-Met antibody, anti-idiotype antibody, biotinylated anti-c-Met antibody as detector
Procedure: (§1) The antibodies prepared in Example 1 above were produced in 293 F cells (invitrogen), purified and quantified to adjust their concentration, and then used for the following tests. The quantification of the purified antibodies was performed using a Nano-drop machine, and numerals reflecting A280/A260 absorption values were used. The quantification results were confirmed again through SDA-PAGE procedures. […] After blocking, the plates were washed with a PBST (0.05% Tween20 in PBS) and then treated with the anti-idiotype antibodies prepared in example 1 at 10-fold serial dilution concentrations (10 μg/ml, 1 μg/ml, 0.1 μg/ml, and 0.01 μg/ml) starting from 10 μg/ml, respectively to react at a room temperature for one hour. After the reaction was complete, the plates were washed again with a microplate washer (Biotek ELx405, PBST).
(§2) For color development, the plates were treated with TMB (3,3,5,5-tetramethylbenzidine) which is a HRP substrate, and absorption was measured at 450 nm.

[2] = biological target: T1, human c-Met/Fc fusion protein (R&D Systems) (human, UniProt P08581 25-932); assay: ELISA, hybridoma culture on plates coated with human c-Met/Fc fusion protein
T1 construct: Bought; also called human c-Met/Fc protein; not shown: Fc part
Procedure: The antibody that remained unbound was removed by washing.
The hybridoma cell culture obtained in Reference Example 1.1.2 was added in an amount of 50 μL to each well of the plates and incubated for 1 hour. The cells remaining unreacted were washed out with a sufficient amount of Tris-buffered saline and Tween 20 (TBST). Goat anti-mouse IgG-horseradish peroxidase (HRP) was added to the plates and incubated for 1 hour at room temperature. The plates were washed with a sufficient amount of TBST, followed by reacting the peroxidase with a substrate (OPD). Absorbance at 450 nm was measured on an ELISA reader.

huAbF46-H4-A1 (IgG2 Fc) [3] = biological target: B2; assay: SPR (Biacore)
EW01 = biological target: B3; assay: sandwich ELISA: plate coated with EW01 0.25 ug/ml; anti-c-Met antibody titrated 3-fold from 1 ug/ml in cynomolgus monkey serum (10% per paragraph 268; the sheet's title prints 0.1% serum); detector biotinylated EW01 0.25 ug/ml, streptavidin-HRP; Abs450
Procedure: After the reaction of the detection antibody was over, the same washing procedures as above were carried out, and a HRP-streptavidin solution (BioLegend) was added thereto to react at a room temperature for one hour. After all the reactions were over, the plates were finally washed and treated with a TMB substrate for color development, and absorption was measured at 450 nm and analyzed.

[4] = biological target: T2, c-Met protein (358-MT/CF, RND systems) (UniProt P08581 25-932); assay: ELISA, 'Pre-existing Experiment (0.1% serum)': plate coated with c-Met protein; anti-c-Met antibody titrated 3-fold from 1 ug/ml in monkey serum diluted to 0.1%; Abs450
T2 construct: Bought reagent, known only by its catalogue number; also called antigen c-Met protein

EW02 = biological target: B1; assay: sandwich ELISA: capture EW02 0.25 ug/ml; anti-c-Met antibody titrated 3-fold from 1 (ug/ml per paragraph 273, axis prints no unit) in 10% human serum; detector EW01-biotin 0.25 ug/ml, streptavidin-HRP; absorbance at 450 nm
Description: Finally, the plates were washed with a washing solution (PBST (0.05% Tween20 in PBS)) to eliminate unreacted HRP and then, they were subject to color development using a TMB substrate to measure absorption at 450 nm.

huAbF46-H4-A1 (IgG2 Fc) [5] = biological target: B2; assay: bridging ELISA: plate coated with anti-c-Met antibody 1 ug/ml; anti-idiotype antibody at 0.01 to 10 (ug/ml per paragraph 258, axis prints no unit); detection with biotinylated anti-c-Met antibody 200 ng/ml and avidin-HRP; absorbance at 450 nm
Procedure: as §1, §2

T1 sequence (P08581 25-932 limits assumed): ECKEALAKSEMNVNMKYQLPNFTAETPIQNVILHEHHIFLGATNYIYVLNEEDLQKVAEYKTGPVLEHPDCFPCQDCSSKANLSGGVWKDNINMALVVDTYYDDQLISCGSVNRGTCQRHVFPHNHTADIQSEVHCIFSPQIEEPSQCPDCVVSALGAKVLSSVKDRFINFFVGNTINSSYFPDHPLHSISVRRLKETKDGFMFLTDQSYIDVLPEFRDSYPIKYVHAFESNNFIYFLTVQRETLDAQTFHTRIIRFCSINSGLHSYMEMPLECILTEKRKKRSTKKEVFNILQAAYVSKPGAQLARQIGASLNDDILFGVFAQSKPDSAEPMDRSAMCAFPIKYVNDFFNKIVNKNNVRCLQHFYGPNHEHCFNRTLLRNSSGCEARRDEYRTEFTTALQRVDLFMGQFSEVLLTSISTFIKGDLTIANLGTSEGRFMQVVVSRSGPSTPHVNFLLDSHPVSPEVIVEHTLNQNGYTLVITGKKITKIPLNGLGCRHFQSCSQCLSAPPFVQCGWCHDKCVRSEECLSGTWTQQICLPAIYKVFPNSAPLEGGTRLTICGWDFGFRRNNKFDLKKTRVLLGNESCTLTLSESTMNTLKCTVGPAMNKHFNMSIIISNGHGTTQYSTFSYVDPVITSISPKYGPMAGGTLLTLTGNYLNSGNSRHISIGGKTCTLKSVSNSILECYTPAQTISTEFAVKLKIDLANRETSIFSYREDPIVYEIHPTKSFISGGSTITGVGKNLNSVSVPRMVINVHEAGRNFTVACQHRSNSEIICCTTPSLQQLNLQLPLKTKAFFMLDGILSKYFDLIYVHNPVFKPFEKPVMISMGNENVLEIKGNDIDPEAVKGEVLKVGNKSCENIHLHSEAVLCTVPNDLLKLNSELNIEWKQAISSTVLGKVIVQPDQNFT
T2 sequence (P08581 25-932 limits assumed): as above

binding result (huAbF46-H4-A1 (IgG2 Fc) [1]) | Binder | other results
binds | HAL 7-12 (antibody, human IgG1, lambda, V domains shown) VH: QLQLQESGGGLVQPGGSLRLSCAASGFTFSSYAMSWVRQAPGKGLEWVSAISGSGGSTYYADSVEGRFTISRDNSKNTLYLQMNSLRAEDTAVYYCAKERLEEPGFFDYWGQGTLVTVSS VL: QSALTQPASVSGSPGQSITISCTGTSSDVGGYNYVSWYQQHPGKAPKLMIYEVSNRPSGVSNRFSGSKSGNTASLTISGLQAEDEAHYYCSSYTTDNAWVFGGGTQLTVLG | 
 | AbF46 (antibody, V domains shown, Mouse monoclonal antibody from a hybridoma; tested as hybridoma culture supernatant in the selection ELISA; also called mouse antibody AbF46; monoclonal antibody of hybridoma KCLRF-BP-00220) VH: EVKLVESGGGLVQPGGSLRLSCATSGFTFTDYYMSWVRQPPGKALEWLGFIRNKANGYTTEYSASVKGRFTISRDNSQSILYLQMDTLRAEDSATYYCARDNWFAYWGQGTLVTVSA VL: DILMTQSPSSLTVSAGEKVTMSCKSSQSLLASGNQNNYLAWHQQKPGRSPKMLIIWASTRVSGVPDRFIGSGSGTDFTLTINSVQAEDLAVYYCQQSYSAPLTFGAGTKLELK | binding result [2]: binds
binds | HAL 8-7 (antibody, human IgG1, kappa, V domains shown) VH: not shown VL: AIQLTQSPLSLSVSAGEKVTMSCKSSQSLLNSGNQKNDLAWYQQKPGQRPKLLIYGASTRESGVPDRFTGSGSGTDFTLTISSVQAEDLAVYYCQNDHSYPLTFGAGTKLEIKR | 
binds | EW28 (antibody, human IgG1, lambda, V domains shown) VH: EVQLLESGGGLVQTGGSLRLSCAVSGFTFSDYAMSWVRQAPGKGLEWVSAISSGDGNTYYADSVKGRFTISRDNSKNTLYLQMNSLRAEDTAVYYCARYLGTTSDEPASYSNGMDVWGQGTLVTVSS VL: not shown | 
binds | EW09 (antibody, human IgG1, lambda, V domains shown) VH: EVQLLESGGGLVQPGGSLRLSCAASGFTFSDYDMSWVRQAPGKGLEWVSSISYGGGSIYYADSVKGRFTISRDNSKNTLYLQMNSLRAEDTAMYYCARDAAYFDYWGQGTLVTVSS VL: not shown | 
binds | HAL 7-7 (antibody, human IgG1, lambda, V domains shown) VH: not shown VL: QSVLTQPPSVSMAPGQTARITCGGNNIATKGVHWYQQKAGQAPVLVVYDDSGRPSGIPDRFSGSKSGNTATLTISRVEAGDEADYYCQLWDGRSDQVLFGGGTKLTVLG | 
 | B1 | Kd (huAbF46-H4-A1 (IgG2 Fc) [3]): 38.4 nM; koff (huAbF46-H4-A1 (IgG2 Fc) [3]): 0.0032 s⁻¹; kon (huAbF46-H4-A1 (IgG2 Fc) [3]): 85000 M⁻¹ s⁻¹
binds | HAL 7-2 (antibody, human IgG1, lambda, V domains shown) VH: QVQLVQSGAEVKKPGSSVKVSCKASGGTFSSYAISWVRQAPGQGLEWMGGIIPIFGTANYAQKFQGRVTITADESTSTAYMELSSLRSEDTAVYYCARDRNSYYEEPMYYFDYWGQGTLVTVSS VL: QAGLTQPPSVSVSPGQTASITCSGDKLGDRYVFWYQQKPGQAPVLVVHDDSDRPSGIPERFSGSNSGDTATLTISRVEAGDEADYYCQVWDSVNDHPVFGGGTKLTVLG | 
binds | HAL 7-5 (antibody, human IgG1, lambda, V domains shown) VH: QVQLVQSGAEVKKPGASVKVSCKASGGTFSSYAISWVRQAPGQGLEWMGGIIPIFGTANYAQKFQGRVTITADESTSTAYMELSSLRSEDTAVYYCARDRNSYYEEPMYYFDYWGQGTLVTVSS VL: not shown | 
 | B2 | EC50 (read off the curve) (EW01): ~0.02 µg/mL; EC50 (read off the curve) [4]: ~0.03 µg/mL; binding result (EW02): binds
 | B3 | binding result (huAbF46-H4-A1 (IgG2 Fc) [5]): binds
binds | EW16 (antibody, human IgG1, lambda, V domains shown) VH: EVQLLESGGGLVQPGGSLRLSCAASGFTFSDYYMSWVRLAPGKGLEWVSAISHSSGNTYYADSVKGRFTISRDNSKNTLYLQMNSLRAEDTAVYYCAKHLGAQSDEPDSSSNGMDVWGQGTLVTVSS VL: QSVLTQPPSASGTPGQRVTISCTGSSSNIGNNDVYWYQQLPGTAPKLLIYSDSNRPSGIPDRFSGSKSGTSASLAISGLRSEDEADYYCGTWDDSLNGYVFGGGTKLTVLG | 
binds | EW06 (antibody, human IgG1, lambda, V domains shown) VH: EVQLLESGGGLVQPGGSLRLSCAASGFTFSGYDMSWVRQAPGKGLEWVSGISHGDGNIYYADSVKGRFTISRDNSKNTLYLQMNSLRAEDTAVYYCAKVGLLFVQEEPSYYNAMDVWGQGTLVTVSS VL: QSVLTQPPSASGTPGQRVTISCTGSSSNIGSNNVTWYQQLPGTAPKLLIYSNSHRPSGVPDRFSGSKSGTSASLAISGLRSEDGADYYCGTWDDSLNGYVFGGGTKLTVLG | 
binds | EW03 (antibody, human IgG1, lambda, V domains shown) VH: EVQLLESGGGLVQPGGSLRLSCAASGFTFSDYDMSWVRQAPGKGLEWVSLISYGGSNTYYADSVKGRFTISRDNSKNTLYLQMNSLRAEDTAVYYCAKFRSEFNENEPSSYYGMDVWGQGTLVTVSS VL: QSVLTQPPSASGTPGQRVTISCSGSSSNIGNNDVTWYQQLPGTAPKLLIYSDSNRPSGVPDRFSGSKSGTSASLAISGLRSEDEADYYCGTWDSSLSAYVFGGGTKLTVLG | 
binds | EW10 (antibody, human IgG1, lambda, V domains shown) VH: EVQLLESGGGLVQPGGSLRLSCAASGFTFSGYDMSWVRQAPGKGLEWVSGISYNGGSKYYADSVKGRFTISRDNSKNTLYLQMNSLRAEDTAVYYCAKYLLPVLEEPGYSADGMDVWGQGTLVTVSS VL: QSVLTQPPSASGTPGQRVTISCTGSSSNIGSNYVSWYRQLPGTAPKLLIYSDSNRPSGVPDRFSGSKSGTSASLAISGLRSEDEADYYCATWDASLSAYVFGGGTKLTVLG | 
binds | EW37 (antibody, human IgG1, lambda, V domains shown) VH: EVQLLESGGGLVQPGGSLRLSCAASGFTFSNYSMSWVRQAPGKGLEWVSSISSSGGNTYYADSVKGRFTISRDNSKNTLYLQMNSLRAEDTAVYYCARVHLYFDYWGQGTLVTVSS VL: QSVLTQPPSASGTPGQRVTISCSGSSSNIGSNSVNWYQQLPGTAPKLLIYSDSHRPSGVPDRFSGSKSGTSASLAISGLRSEDEADYYCGSWDDSLSGYVFGGGTKLTVLG | 
binds | EW26 (antibody, human IgG1, lambda, V domains shown) VH: EVQLLESGGGLVQPGGSLRLSCAASGFTFSNYAMSWVRQAPGKGLEWVSAIYPGGGNTYYADSVKGRFTISRDNSKNTLYLQMNSLRAEDTAVYYCAKSLSTHSVDEPSSDNAMDVWGQGTLVTVSS VL: QSVLTQPPSASGTPGQRVTISCTGSSSNIGSNSVSWYQQLPGTAPKLLIYDDSNRPSGVPDRFSGSKSGTSASLAISGLRSEDEADYYCASWDYSLNAYVFGGGTKLTVLG | 
